Measured values taken from patent US20110027291A1, “METHODS, SYSTEMS AND PRODUCTS FOR PREDICTING RESPONSE OF TUMOR CELLS TO A THERAPEUTIC AGENT AND TREATING A PATIENT ACCORDING TO THE PREDICTED RESPONSE” (MERRIMACK PHARMACEUTICALS, INC., priority 2008, published 2011).
“Also recorded” adds a separate entry of the source.

Legend:
[1] = system: ACHN xenograft tumor (renal cancer cell line); assay: Xenograft efficacy study with Ab #6: ACHN; assay type: in vivo, nu/nu mice
Source text: (§1) In this example, four xenograft tumor models were used to identify tumor cell lines that responded to treatment with the anti-ErbB3 antibody Ab #6. The four xenograft tumor models studied represent different indications: MALME3M (melanoma cancer line; ATCC No. HTB-64), ADRr (ovarian cancer cell line; NCI-60, cosmic sample ID No. 905987), ACHN (renal cancer cell line; ATCC No. CRL-1611) and DU145 (prostate cancer cell line; ATCC No. HTB-81).
(§2) In the xenograft tumor models, mice (nu/nu mice: 3-4 week old female mice, T-cell deficient; outbred; Albino background; from Charles River Labs, Wilmington, Mass.) are implanted in the right flank with […] cells/mouse (depending on cell line) in 200 μl via subcutaneous injection. Mice are monitored for initial tumor growth. Tumor cells are allowed to grow for several days until the tumor volume is approximately 200 mm^3. The tumor volume is calculated as V=(π/6 (L×W^2). The mice are treated with the Ab #6 antibody at a dosage of 600 μg/injection every 3 days (qd3). Control mice are treated with phosphate buffered saline (PBS).
(§3) Tumor volume is measured for 60-80 days.
(§4) As a measure of responsiveness of the tumor to Ab #6, the exponential growth rate is determined, which described the experimental data best. The following formula is used to describe the exponential growth. […]

HOP92 xenografts = assay: Nude mouse xenograft test of MM-121: HOP92; assay type: in vivo
Source text: (§5) FIG. 11 is a graph depicting the ability of an anti-ErbB3 antibody (Ab #6, MM-121) to inhibit proliferation of ACHN cells and cells of other cell lines. The center line of the three parallel diagonal lines represents the line computed to maximally separate MM-121 responders from non-responders. Predicted responder MDA-MB-231 was subsequently tested as nude mouse xenografts and was confirmed as a responder (i.e., growth of MDA-MB-231 as nude mouse xenografts was inhibited by MM-121 treatment). Other predicted responders would not grow adequately as xenografts and so could not be tested. Predicted non-responders ZR75-1 and HOP92 were subsequently tested as nude mouse xenografts and were confirmed as non-responders (i.e., growth of each as nude mouse xenografts was not inhibited by MM-121 treatment). Other predicted non-responders have not yet been tested experimentally.

ErbB3 [2] = target: T1, ErbB3 (UniProt P21860 20-643, limits assumed); assay: Kinexa
T1 construct: Elsewhere it speaks of the ectodomain of human ErbB3; also called E3; HER3

ErbB3 [3] = target: T1, ErbB3; assay: Kinexa; same on-rate as 1.43e5 M^-1s^-1, converted to model units per well
[4] = system: MALME3M xenograft tumor (melanoma cancer line); assay: Xenograft efficacy study with Ab #6: MALME3M; assay type: in vivo, nu/nu mice
Source text: as §1, §2, §3, §4

[5] = system: DU145 xenograft tumor (prostate cancer cell line); assay: Xenograft efficacy study with Ab #6: DU145; assay type: in vivo, nu/nu mice
Source text: as §1, §2, §3, §4

MDA-MB-231 xenografts = assay: Nude mouse xenograft test of MM-121: MDA-MB-231; assay type: in vivo
Source text: as §5

ZR75-1 xenografts = assay: Nude mouse xenograft test of MM-121: ZR75-1; assay type: in vivo
Source text: as §5

OVCAR8 xenograft tumor = assay: Xenograft study with Ab #6 (predicted set): OVCAR8; assay type: in vivo, mice
Description: as §2
(§6) To test these model predictions, three additional in vivo xenograft studies were performed. The IGROV1, OVCAR8 and SKOV3 cell lines were used in xenograft studies conducted as described in Example 1, wherein mice were treated with 600 μg of Ab #6 every 3 days or with PBS as a control. The xenograft responses, as determined by changes in tumor volume (in mm^3) over time, are summarized in the graphs of FIGS. 9A-9C. Again, the Growth Rate Reduction (GRR) value for each cell line was calculated using the following formula:
(§7) Growth Rate Reduction=1−(Ab #6 Growth Rate)/(PBS Growth Rate)

ErbB3 [6] = target: ErbB3 (Homo sapiens, UniProt P21860); assay: Ab #6 rate constants measured by Kinexa (inhibitor parameter values, Table 13); assay type: binding
[7] = system: ADRr xenograft tumor (ovarian cancer cell line); assay: Xenograft efficacy study with Ab #6: ADRr; assay type: in vivo, nu/nu mice
Source text: as §1, §2, §3, §4

BT474 xenograft tumor = assay: Xenograft study with Ab #6 (MM-121): BT474; assay type: in vivo, mice
Source text: In this example, the data obtained for the four cell lines examined in the xenograft studies described in Example 1 (ADRr, ACHN, DU154 and MALME3M) and four cell lines including the three examined in the xenograft studies described in Example 7 (IGROV 1, OVCAR8 and SKOV3), as well as a fourth, BT474, also examined in xenograft studies as described in Example 7, were further examined to determine whether direct biomarkers for Ab #6 (MM-121) responsiveness could be identified.
Next, it was examined whether the concentration of heregulin (HRG) in combination with one receptor concentration (e.g., ErbB1, ErbB3) effectively classified the xenograft data into responders and non-responders. As illustrated in the graph of FIG. 11 (in which the log of the concentration of HRG is plotted against the log of the concentration of ErbB1), these two concentration measurements, HRG and one of the ErbB receptors, were able to accurately classify the xenograft data into responders and non-responders. More specifically, the data for four non-responders BT474, MALME3, ADRr and IGROV1, were separable from the data for four responders, OVCAR8, SKOV3, ACHN, and DU154, thereby allowing for classification of non-responders versus responders. […] For this example, EGFR is measured by FACS and HRG is measured by RT-PCR. […]

SKOV3 xenograft tumor = assay: Xenograft study with Ab #6 (predicted set): SKOV3; assay type: in vivo, mice
Description: as §2, §6, §7

IGROV1 xenograft tumor = assay: Xenograft study with Ab #6 (predicted set): IGROV1; assay type: in vivo, mice
Description: as §2, §6, §7

[8] = Ab #6 600 μg/injection every 3 days vs PBS
[9] = Ab #6 600 μg/injection every 3 days vs PBS, negative GRR set to zero
[10] = 600 μg of Ab #6 every 3 days vs PBS

koff (ErbB3 [2]): 0.00011 s⁻¹ | kon (ErbB3 [2]): 143000 M⁻¹ s⁻¹ | kon (ErbB3 [3]): 143000 M⁻¹ s⁻¹ | kr Ab #6_1: Ab #6 inhibitor dissociation from ErbB3 (ErbB3 [6]): 0.00011 s⁻¹ | kr Ab #6_2: Ab #6 inhibitor dissociation from a second ErbB3 (ErbB3 [6]; 2 * krmm121_1): 0.00022 s⁻¹ | kf Ab #6_1: Ab #6 inhibitor binding to ErbB3 (ErbB3 [6]; unit conversion from M^−1s^−1 /(Vmedia * Av/Num_cells), Num_cells = 30,000 per well): 7.15E−11 molecules^−1 sec^−1
B1: anti-ErbB3 monoclonal antibody Ab #6 (antibody, V domains shown)
VH: EVQLLESGGGLVQPGGSLRLSCAASGFTFSHYVMAWVRQAPGKGLEWVSSISSSGGWTLYADSVKGRFTISRDNSKNTLYLQMNSLRAEDTAVYYCTRGLKMATIFDYWGQGTLVTVSS
VL: QSALTQPASVSGSPGQSITISCTGTSSDVGSYNVVSWYQQHPGKAPKLIIYEVSQRPSGVSNRFSGSKSGNTASLTISGLQTEDEADYYCCSYAGSSIFVIFGGGTKVTVL
notes: also called MM-121
GRR (Tumor Growth Rate Reduction) [1, 8]: 28.0% | effect of antibody treatment on tumor growth (in words) ([1]; vs PBS control): inhibited tumor growth; also recorded: mid-range responsiveness | growth as nude mouse xenografts under MM-121 treatment (HOP92 xenografts): not inhibited | GRR (Tumor Growth Rate Reduction) [4, 9]: 0% | effect of antibody treatment on tumor growth (in words) ([4]; vs PBS control): did not inhibit tumor growth; also recorded: no response | GRR (Tumor Growth Rate Reduction) [5, 8]: 72.6% | effect of antibody treatment on tumor growth (in words) ([5]; vs PBS control): inhibited tumor growth; also recorded: highest responsiveness | growth as nude mouse xenografts under MM-121 treatment (MDA-MB-231 xenografts): inhibited | growth as nude mouse xenografts under MM-121 treatment (ZR75-1 xenografts): not inhibited | experimentally observed responsiveness to Ab #6 based on GRR value (OVCAR8 xenograft tumor): responders | GRR (Tumor Growth Rate Reduction) (OVCAR8 xenograft tumor; [10]): 91.4% | Ab #6 inhibitor binding to ErbB3 (on-rate before unit conversion) (ErbB3 [6]): calculated as 1.43e5 M^−1s^−1/(Vmedia * Av/Num_cells). | GRR (Tumor Growth Rate Reduction) [7, 9]: 0% | effect of antibody treatment on tumor growth (in words) ([7]; vs PBS control): did not inhibit tumor growth; also recorded: no response | xenograft responsiveness (responder / non-responder) (BT474 xenograft tumor): non-responders | experimentally observed responsiveness to Ab #6 based on GRR value (SKOV3 xenograft tumor): responders | GRR (Tumor Growth Rate Reduction) (SKOV3 xenograft tumor; [10]): 19.6% | experimentally observed responsiveness to Ab #6 based on GRR value (IGROV1 xenograft tumor): non-responder | GRR (Tumor Growth Rate Reduction) (IGROV1 xenograft tumor; [10]): 6.3%
